One data set has as its target hUNG2 catalytic domain (human, UniProt P13051 92-313). The experiment in a line: fluorescence anisotropy. In general terms: In fluorescence polarisation assays a small probe gives low polarisation when free and higher when bound to something large.
For data set [1], the target named is T1, hUNG2 full-length (human, UniProt P13051 1-313). Nature of the data set: fluorescence anisotropy.
The target of data set [2] is T2, RPA heterotrimer (UniProt P27694;P15927;P35244 1-616;1-270;1-121). Nature of the data set: EMSA. For orientation: A gel shift assay detects complexes by their altered migration in electrophoresis.
T2 sequence (P27694 whole entry, chain 1 of 3): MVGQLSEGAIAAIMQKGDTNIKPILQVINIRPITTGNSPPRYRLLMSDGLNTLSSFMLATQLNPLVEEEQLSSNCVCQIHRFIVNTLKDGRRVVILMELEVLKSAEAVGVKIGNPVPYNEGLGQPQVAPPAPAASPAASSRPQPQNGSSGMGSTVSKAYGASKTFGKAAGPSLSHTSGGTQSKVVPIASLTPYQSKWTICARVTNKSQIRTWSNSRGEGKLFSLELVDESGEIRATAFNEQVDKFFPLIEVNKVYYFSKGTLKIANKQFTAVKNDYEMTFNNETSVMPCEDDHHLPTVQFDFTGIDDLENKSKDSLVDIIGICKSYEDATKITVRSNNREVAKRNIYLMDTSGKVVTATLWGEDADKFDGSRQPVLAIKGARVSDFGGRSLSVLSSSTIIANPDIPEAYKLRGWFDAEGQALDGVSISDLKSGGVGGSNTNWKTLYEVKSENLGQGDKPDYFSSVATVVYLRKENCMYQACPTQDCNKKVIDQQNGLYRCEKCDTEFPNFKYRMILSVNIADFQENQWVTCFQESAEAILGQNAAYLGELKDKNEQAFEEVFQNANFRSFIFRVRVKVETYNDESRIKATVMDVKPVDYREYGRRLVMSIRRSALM
T2 sequence (P15927 whole entry, chain 2 of 3): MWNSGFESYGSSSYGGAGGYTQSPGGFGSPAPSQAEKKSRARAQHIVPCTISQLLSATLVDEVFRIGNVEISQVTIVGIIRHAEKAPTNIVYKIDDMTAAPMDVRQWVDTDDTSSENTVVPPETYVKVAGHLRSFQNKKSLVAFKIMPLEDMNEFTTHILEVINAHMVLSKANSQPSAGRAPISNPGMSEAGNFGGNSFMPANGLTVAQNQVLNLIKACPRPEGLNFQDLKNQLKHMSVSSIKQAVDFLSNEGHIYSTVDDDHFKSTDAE
T2 sequence (P35244 whole entry, chain 3 of 3): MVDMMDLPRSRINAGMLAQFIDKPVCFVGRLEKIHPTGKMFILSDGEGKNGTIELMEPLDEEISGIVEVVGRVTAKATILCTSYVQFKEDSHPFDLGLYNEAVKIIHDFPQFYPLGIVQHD
The target in data set [3] is T2, RPA heterotrimer. Nature of the data set: EMSA. This is another data set of the same source.
Data set [4] deals with T1, hUNG2 full-length. Nature of the data set: fluorescence anisotropy. The source holds these as a separate data set.

Like-named read-outs stand apart in the source and are kept apart here.

T1 sequence (P13051 whole entry): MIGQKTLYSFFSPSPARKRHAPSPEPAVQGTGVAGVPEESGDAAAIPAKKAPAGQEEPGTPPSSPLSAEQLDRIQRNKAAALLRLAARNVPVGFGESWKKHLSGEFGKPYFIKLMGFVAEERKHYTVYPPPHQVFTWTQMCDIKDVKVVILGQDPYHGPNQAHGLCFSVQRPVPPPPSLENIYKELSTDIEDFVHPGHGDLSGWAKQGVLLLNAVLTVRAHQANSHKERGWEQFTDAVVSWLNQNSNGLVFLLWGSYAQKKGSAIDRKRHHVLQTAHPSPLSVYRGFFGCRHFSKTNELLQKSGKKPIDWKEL
hUNG2 catalytic domain, sequence (P13051 92-313): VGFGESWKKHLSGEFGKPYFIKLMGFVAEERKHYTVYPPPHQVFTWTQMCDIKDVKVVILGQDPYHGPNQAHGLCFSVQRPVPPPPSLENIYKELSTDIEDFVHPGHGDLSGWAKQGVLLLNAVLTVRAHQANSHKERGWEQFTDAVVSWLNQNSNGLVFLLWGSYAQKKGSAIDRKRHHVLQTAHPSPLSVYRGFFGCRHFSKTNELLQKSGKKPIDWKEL

B1: 29 bp duplex (oligos 13/14) (dsDNA)
DNA 1: GGTGCTGGATAACTGCCGGGCCACGCGTG
DNA 2: CACGCGTGGCCCGGCAGTTATCCAGCACC
As to B1, in the data set with hUNG2 catalytic domain, the binding signal is 3 fold lower affinity than full-length hUNG2.

B2: 29 bp duplex with 29 nt 5' ssDNA overhang (oligos 15/16) (mixed)
DNA 1: CACGCGTGGCCCGGCAGTTATCCAGCACCACTTAGCTATCGATTCCCGCATGCTCTGA
DNA 2: TCAGAGCATGCGGGAATCGATAGCTAAGT
Regarding B2, the binding result in the data set with hUNG2 full-length [1] is “binds”.

B3: 55 bp duplex U9/U33 with 32 nt 5' overhang (oligos 9/10) (mixed)
DNA 1: ATCGAGCTGGACACCATCACTCCATATTGGTCACTTAGCTATCGATTCCCGCATGCTCTTAGCTATCGATTCACCTGAGACTAGTCA
DNA 2: TGACTAGTCTCAGGTGAATCGAUAGCTAAGAGCATGCGGGAATCGAUAGCTAAGT
modifications: two deoxyuridines in strand 2
For B3, in the data set with RPA heterotrimer [2], the binding result was “binds”.

B4: 55 bp duplex U9/U33 with 32 nt 3' overhang (oligos 18/19) (mixed)
DNA 1: ACTGATCAGAGTCCACTTAGCTATCGATTCTCGTACGCCCTTAGCTATCGATTCACTGGTTATACCTCACTACCACAGGTCGAGCTA
DNA 2: TGAATCGAUAGCTAAGGGCGTACGAGAATCGAUAGCTAAGTGGACTCTGATCAGT
modifications: two deoxyuridines in strand 2
On to B4, for which the binding result with RPA heterotrimer [3] is “binds”.

Turning to CACGCGTGGCCCGGCAGTTATCCAGCACC (ssDNA) [29 nt ssDNA (oligo 14)], the binding signal in the data set with hUNG2 full-length [4] was 3 fold higher affinity than N1 (29 bp dsDNA).

B5: 55 bp duplex U21/U45 with 32 nt 5' overhang (oligos 4/5) (mixed)
DNA 1: ATCGAGCTGGACACCATCACTCCATATTGGTCACTGCATGCTCTTCTTAGCTATCGATTCACCTGAGACCTTAGCTATCGATTCTCA
DNA 2: TGAGAATCGAUAGCTAAGGTCTCAGGTGAATCGAUAGCTAAGAAGAGCATGCAGT
modifications: two deoxyuridines in strand 2
For the molecule B5, in the data set with RPA heterotrimer [2], the binding result is “binds”.

The values are drawn from PMC6101581.
